The values that follow come from the nanobody polyreactivity screen of Harvey et al. (2022).

This data set is described as follows: yeast display, Sf9 membrane polyspecificity reagent, FACS + sequencing; frameworks hold sequencing errors. In outline: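 Nanobodies from a synthetic yeast display library (Saccharomyces cerevisiae BJ5465), induced 36–48 hours with galactose, were stained 1 hour at 4 °C with 10% biotinylated, detergent-solubilized Sf9 membrane reagent, enriched on streptavidin microbeads, then FACS-sorted. Anti-HA (expression) and streptavidin (reagent binding) fluorescence set low and high (top ~1%) gates. Polyreactivity labels come from the gate of origin. Genes were colony-PCR amplified, MiSeq 2 × 250 sequenced and filtered by CDR length.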
Take “QVQLVESGGGLVQAGGSLRLSCAASGSTFRSYAMGGYIQAPGKERELVAAISGRGGSTYYADSVKGRFTISRDNAKNPVYLQMNSLKPEDTAVYYCNAVPGVSYWGQGLDYWGQGTQVTVSS”: the “polyreactivity (PSR sort gate)” value is “low polyreactivity”.

Take “QVQLVESGGGLVQAGGSLRLSCAASGLIFSRYTMGWYRQAPGKERELVAAISKTGSSTYYADSVKGRFTISRDNAKNTVYLQMNSLKPEDTAVYYCAAETGTGETRYYRYWDYYYWGQGTQVTVSS”: the “polyreactivity (PSR sort gate)” value is given as “high polyreactivity”. As to “QVQLVESGGGLVQAGGSLRLSCAASGSTFRKYAMGWYRQAPGKEREFVAAITWSTGTTYYADSVKGRFTISRDNAKNTVYLQMNSLIPEDTAVYYCAADSQPPHELYESIEHESWGQGTQVTVSS”, the “polyreactivity (PSR sort gate)” value is on record as “low polyreactivity”. In the case of “QVQLVESGGGLVQAGGSLRLSCAASGSTFTLYAMGWYRQAPGKERELVATITGSGGSTNYADSVKGRFTISRDNAKNTVYLQMNSLKPEDTAVYYCAADYAVYSFTDFNYWGQGTQVTVSS” it was “high polyreactivity”; in that of “QVQLVESGGGLVQAGGSLRLSCAASGYIFGYYAMGWYRQAPGKERELVAAISTDGSTDYADSVKGRFTISRDNAKKTVYLQMNSLKPEDTAVYYCAKELFIVTNGVYIYDSWGQGTQVTVSS”, “low polyreactivity”. In the case of “QVQLVESGGGLVQAGGSLRLSCAASGNTFRWYVMGWYRQAPGKERELVAAITSSGSTTYYADSVKGRFTISRDNAKNTVYLQMNSLKPEDTAVYYCAARNYGPYDYWGQGTQVTVSS”, the “polyreactivity (PSR sort gate)” value was “low polyreactivity”. In the case of “QVQLVESGGGLDQAGGSLLLSCAASGSIFNDYAMGWYRQAPGKERELVAAISTSDGSTYYADSVKGRFTISRDNAKNTVYLQMKSLKPEDTAVYYCAVVSDYYYYPPYGYWGQGTQVTVSS”, the “polyreactivity (PSR sort gate)” value is on record as “low polyreactivity”.

Take “QVQLVESGGGLVQAGGSLRLSCAASGFTFQGNAMGWYRQAPGKERELVAAISWSGGRTYYADSVKGRFTISRDNAKNTVYCQMNSLKPEDTAVYYCAIVYKDVSGDDYWGQGTQVTVSS”: the “polyreactivity (PSR sort gate)” value is recorded as “low polyreactivity”. In the case of “QVQLVESGGGLVQAGGSLRLSCAASGRIIGAYAMGWYRQAPGKERELVARISWSGGTTYYADSVKGRFTISRDNAKNTVYLQMDSLKPEDTAVYYCAARYSYYVTGGISKYDYWGQGTQVSVSS”, the “polyreactivity (PSR sort gate)” value is given as “low polyreactivity”.

Turning to “QVQLVESGGGLVQAGGSLRLSCAASGSTFGSNAMGWYRQAPGKERELVAAISWTGGSTYYADSVKGRFTISRDNAKYTVYLQMKSLKPEDTAVYYCNAYGYGYPLYRYDYWGQGTQVTVSS”, the “polyreactivity (PSR sort gate)” value was “low polyreactivity”. With “QVQLVESGGGLDQAGGSLRLSCAASGSIFDYYAMGWYRQAPGKERELVARISYSGGTTYYADSVKGRFTISRDNAKNTVYLQMNSLKPEDTAVYYCNARIPYSWRYGYWGQGTQVTVSS”, the “polyreactivity (PSR sort gate)” value was “high polyreactivity”. To “QVQLQESGGGLVQAGGSLRLSCAASGSISNSAAKVWYRQAPGKERELVVSIGHGASSNYADSVKGRFTISRDNAKNTVYLQMNSLKPEDTAVYYCAAYPGFLDGFFYWGQSTQVTVSS” belongs “high polyreactivity”; to “QVQVVESGGGLVQAGGSLRLSCGASGSTFQGNAMGWYRPAPGKDRALDAAISRSGGSTYADSVKGRFTISRDNAKNTVYLQMNSLKPADTAVYYCAADALYWIGRMDYWGQGTQVTVSS”, “low polyreactivity”; to “QVQLVESGGGLVQAGGSLRLSCAASGRTFAIYAMGWYRQAPGKEREFVAAISWSGCSTYADSVKGRFTISRDNAKNTVYLQMNSLKPEDTAVYYCAKTILYDCDYWGQGTQVTVSS”, “low polyreactivity”.

As to “QVQLVESGGGLVQAGGSLRLSCAASGSIFRANVLGWYRKAPGKERELVAAISRGGGTTYYADSVKGRFTISRDNAKNTVYLQMNSLKPEDTAVYYCAALGHYRSNNNVDMDYWGQGTQVTVSS”, the “polyreactivity (PSR sort gate)” value is reported as “high polyreactivity”.

On to “QVQLVESGGGLVQAGGSLRLSCAASGLTFGDYTMGWYRQAPGKERELVAAISTSGGSTYYADSVKGRFTISRDNAKNTVYLQMNSLKPEDTAVYYCNARRTHTRSHYYYWGQGTQVTVSS”, for which the “polyreactivity (PSR sort gate)” value is “high polyreactivity”.

For the sequence “QVQLVESGGGLVQAGGSLRLSCAASGLTFYYYAMGWYRQAPGKERELVAAISGTGGSAYYADSVKGRFTISRDNAKNTVYLQMNSLKPEDTAVYYCAARYLRYKGTGATSAYDYWGQGTQVTVSS”, the “polyreactivity (PSR sort gate)” value was “high polyreactivity”.

Take “QVQLQESGGGLVQAGGSLRLSCAASGSIFLFYTMGWYRQAPVKEREFVAGITLGTTTYNADSVKGRFTISRDNVKNTVYLQMNSLKPEDTAVYYCNAVGDARYNYWGQGTQVTVSS”: the “polyreactivity (PSR sort gate)” value is on record as “high polyreactivity”. Turning to “QVQLVESGGGLVQAGGSLRLSCAASGSIFNGYAMGWYRQAPGKERELVAAISWSGVGTYYADSVKGRFTISRDNAKNTVYLQMNSLKPEDTAVYYCAAALPLVDFYDYWGQGTQVTVSS”, the “polyreactivity (PSR sort gate)” value is on record as “low polyreactivity”. For the sequence “QVQLVESGGGLVQAGGSLRLSCAASGRIFRGYAMGWYRQAPGKERELVAAISNGGGTNYADTVKGRFTISRDNAKNTVYLQMNSLKPEDTAVYYCATGFLQNYYKYTSSFRFYYWGQGTQVTVSS”, the “polyreactivity (PSR sort gate)” value was “high polyreactivity”. In the case of “QVQLVESGGGLVQAVGSLRLSCAASGRTFDFYAMGWYREAPGKEREFVAAISSRGGSTYYADTVKGRFTISRDNAKNTVYLQMNSLKPEDTAVYYCAKDLGYRGRYNYWGQGTQVTVSS” it was “low polyreactivity”; in that of “QVQLVESGGGLVQAGGSLRLSCAASGLTFSDYAMGWYRQAPGKERELVAGISSGGSTYYADSVKGRFTISRDNAENTVYLQMNSLKPEDTAVYYCAATRYNRWPIKFDYWGQGTQVTVSS”, “high polyreactivity”. In the case of “QVQLVESGGGLVQAGGSLRLSCAASGFTFKYYALGWYRQAPGKERELVAAIRGSGAGTYYADSVKGRFTISRDNSKNTVYLQMNSLKPEDTAVYYCNNRWTYKWDDYWGQGTQVTVSS” it was “high polyreactivity”; in that of “QVQLVESGGGLVQAGGSLRLSSGASGSTFVTYAMGWYRQAPGKEREFVAAISSTGTGRTYYADSVKGRFTISRDNAKNPVYLQMNSLKPEDTAVYYCAADLYGTYDYWGQGTQVTVSS”, “low polyreactivity”; in that of “QVQLVESGGGLVQAGGSLRLSCAASGRIYSVYGLGWYRQAPGKDRELVAAISSSAGSTNYADSVKGRFTISRDNAKNTVYLQMNSLKPEDTAVYYCAAYYRRVVYYPTAYYIRKYDYWGQGTQVTVSS”, “high polyreactivity”. Consider “QVQLVESGGGLVQAGGSLRLSCAASGRIFTPYAMGWYRQAPGKERELVAVIRDGSTYYADSVKGRFTISRDNAKNTVYLQMNSLKPEDPAVSYCSYDIWVWWSGAYDYWGQGNQVTVSS”, for which the “polyreactivity (PSR sort gate)” value is given as “low polyreactivity”. In the case of “QVQLVESGGGLVKAGGSLRLSCAASGFIFNGYAMGWYRQAPGKESELVAAINSGGITHYADSVKGRFTISRDNAKNTVYLQMNSLKPEDTAVYYCAAVRTGYYRQYDYWGQGTQVTVSS” it was “high polyreactivity”; in that of “QVQLVESGGGLVQAGGSLRLTCAASGIIFGENARGWYRQAPGKERELVDAINSVGSTYYADSVKGRFTISRDNAKNTVYLQMNSLKPEDTAVYYCAAESWFLRWYRYDYWGQGTQVTVSS”, “low polyreactivity”; in that of “QVQLVESGGGLVQAGGSHRLSCAASGFIFSYYAMGWYRQAPGKERELVAAITDSGGSTYYADSVKGRFTISRDNAKNTVYLQMNSLKPEDTAVYYCAATYWWAYVWAYSHVKSTNDYWGQGTQVTVSS”, “low polyreactivity”.

As for “QVQLVESGGGLVQAGGSLRLSCAASGSIFQLNAKGWYRQAPGKERELVAAITWSGDSTYYADSVKGRFTISRDNAKNTVYLQMNSLKPEDTAVYYCAADVLTTPPPREFEYWGQGTQVTVSS”, the “polyreactivity (PSR sort gate)” value is given as “high polyreactivity”.

“QVQLVESGGGLVQAGGSLRLSCAASGFTFPAYTMGWYRQAPGKEREWVAAITSSGGNTYYADSVKGRFTISRDNAKNTVYLQMNSLKPEDTAVYYCATVSVRWPSNDHVRYDYWGQGTQVTVSS”: the “polyreactivity (PSR sort gate)” value is listed as “low polyreactivity”. With “QVQLQESGGGLVQAGGSLRLSCAASGNIFEADIMGWYHQAQGKERELVASITDGGSTNYADSVKGRFTINRDNAKNNVYLQMNSLKPEDTAVYYCAAIAYPDIPTYFDYDSDYFYWGQGTQVTVSS”, the “polyreactivity (PSR sort gate)” value is “high polyreactivity”. To “QVQLVESGGGLVQAGGSLRLSCAASGRTYYYNAMGWYREAPGKERELVARISQRTGSTYYADSVKGRFTISRDNAKNTVYLQMNSLKPEDTAVYYCAASSQTRQWTNDYWGQGTQVTVSS” belongs “high polyreactivity”.

For the sequence “QVQLVESGGGLVQAGGSLRLSCAASGFLFDFYPLGWYRPAPGKDRELVAAITNGGSTYYADSVKGRFTISRDNAKNTDYLQMNSLKPEDTAVYYCAAYYRSRHHGYDSCGQGTQVTVSS”, the “polyreactivity (PSR sort gate)” value is “low polyreactivity”.

Take “QVQLVESGGGLVQAGGSLRLSSAASGLIFYSYTMGWNRQAPGKERELVAVISRSGTSTYYADSVKGRFTISRDNAKNTVYLQMNSLKPEDTSVYYCAALTRSGPYAYEYWGQGTQVTVSS”: the “polyreactivity (PSR sort gate)” value is on record as “high polyreactivity”.

Consider “QVQLVESGGGLVQAGGSLRLSCAASGNTFNPNAMGWYRQAPGKERELVAVIRFRGGSTYYADSVKGRFTISRDNAKNTVYLQMNSLKPEDTAVYYCNVYRGRYLYAWRPRGYWGQGTQVTVSS”, for which the “polyreactivity (PSR sort gate)” value is on record as “high polyreactivity”. Turning to “QVQLVESGGGLVQAGGSLRLSCAASGSTFDVNAMGSYRQAPGKERELVAAISWNSGSTYYADSVKGRFTISRDNAKNTVYLQMNSLKPEDTAVYYCAATYGTGRRSKYGYWGQGTQVTVSS”, the “polyreactivity (PSR sort gate)” value is given as “high polyreactivity”. Consider “QVQLVESGGGLVQAGGSLRLSCAASGNIFESYGMGGYRQAPGKERELVAAISFSGDSTYYADSVKGRFTISRDNAKNSVYLQMNSLKPEDTAVYYCATDVGYVYGYYYWGQGTQVTVSS”, for which the “polyreactivity (PSR sort gate)” value is listed as “low polyreactivity”. For “QVQLLESGGGLVQAGGSLRLSCAASGSIFPAYSMGWYRQAPGKERELVASITGSGGSTYYADSVKGRFTISRDNAKNSVYLQMTSLKPEETAVYYCNARYYVYSATVDRYYHFYYWGQGTQVTVSS”, the “polyreactivity (PSR sort gate)” value was “high polyreactivity”.

As for “QVQLVQSGGGLVQAGVSLRLSCAASGLIIGVYAMGWYRQAPGKERELVAAITDGGSTYYADSVKGRFTISRDNAKNTVYLQMHSLKPEDTAVYYCNAEFRSSDYDYWGQGTQVTVSS”, the “polyreactivity (PSR sort gate)” value is “low polyreactivity”.
